Measured values reported in patent publication US20240318157A1, “Neurotensin Variants And Tagged Proteins Comprising Neurotensin Or Sortilin Propeptide” (Amicus Therapeutics, Inc., priority 2021, published 2024).

Molecular target: T1, extracellular soluble domain of sortilin, residues 78-755 (Homo sapiens, UniProt Q99523)
T1 construct: the extracellular soluble domain of sortilin, residues 78-755, was expressed in Expi293F cell line; made in house; host or cells: Expi293F
Assay: microplate binding assay, enzymic activity of sortilin-bound GAA tagged protein
Source text: FIG. 2. α-D-glucopyranoside activity of sortilin-bound GAA tagged protein. Extracellular soluble sortilin domain with a C-terminal TwinStrep tag for immobilized on a 96-well microplate. […] A fluorogenic 4-methylumbelliferyl-α-D-glucopyranoside substrate was used to measure α-D-glucopyranoside activity of the sortilin-bound tagged proteins.
For a microplate binding assay, the extracellular soluble domain of sortilin, residues 78-755, was expressed in Expi293F cell line (using Expi293 Expression System; Thermo Fisher, A14635) with a C-terminal TwinStrep affinity tag. Harvests were collected after 5 days. Conditioned media was incubated with StrepTactin XT coated microplates (IBA, 2-4101-001) for 1 hour to immobilize sortilin to the plates. After several washes, wells coated with sortilin were incubated with varying doses of NT-GAA, GAA-NT or GAA diluted into PBS for 30 minutes. The unbound protein was then washed away. The α-D-glucopyranoside activity of the bound GAA tagged protein was measured using a fluorogenic substrate, 4-methylumbelliferyl-α-D-glucopyranoside, at pH 4.8. […] The inflection point in both binding curves indicates bivalency of sortilin for neurotensin.

α-D-glucopyranoside activity of sortilin-bound protein (immobilized sortilin, 30 minutes in PBS, 4-methylumbelliferyl-α-D-glucopyranoside, pH 4.8, FIG. 2): no α-D-glucopyranoside activity | binding to sortilin (inferred from absence of activity in sortilin-coated wells, FIG. 2): did not bind to sortilin
Substance: GAA: GAA with no NT tag; lysosomal alpha-glucosidase (RefSeq: NM_000152.5) [reference compound]
